Measured values from publication PMC3546842, “Using BAC transgenesis in zebrafish to identify regulatory sequences of the amyloid precursor protein gene in humans”.

T1: E4BP4-DBD (NFIL3 DNA-binding domain) (zebrafish, UniProt Q68EL6 18-164)
T1 sequence: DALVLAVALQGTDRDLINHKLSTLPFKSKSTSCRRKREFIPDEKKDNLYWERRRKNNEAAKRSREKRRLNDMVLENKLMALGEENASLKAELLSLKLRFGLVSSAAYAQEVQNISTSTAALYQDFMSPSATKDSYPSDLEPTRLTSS

B1: probe a (dsDNA)
DNA 1: AATAAATGTTACATAATCCAAAGTC
DNA 2: GACTTTGGATTATGTAACATTTATT
B2: probe d (dsDNA)
DNA 1: ATTGGTTCATTATGTAACTTTCCCAT
DNA 2: ATGGGAAAGTTACATAATGAACCAAT
B3: probe c (dsDNA)
DNA 1: ATTAAATTTTATGTAAAAATATGT
DNA 2: ACATATTTTTACATAAAATTTAAT
B4: probe b (dsDNA)
DNA 1: GTAAGCTTTTATGTAAGTATTTTG
DNA 2: CAAAATACTTACATAAAAGCTTAC
B5: probe e (E4BP4 site E11) (dsDNA)
DNA 1: TGGTCAGTATTGTTATTACATAAGACATCAGCAAT
DNA 2: ATTGCTGATGTCTTATGTAATAACAATACTGACCA

Target: T1, E4BP4-DBD (NFIL3 DNA-binding domain)
Experiment: EMSA; not given; EMSA performed as in an earlier cited paper (ref 25)
Conditions: protein: recombinant; tags: N-terminal His6; additional pET-30a(+) vector residues; chain copies: 2

**Q.** Does B1 bind?
**A.** binds

**Q.** Does B2 bind?
**A.** binds

**Q.** Does B3 bind?
**A.** binds

**Q.** Does B4 bind?
**A.** binds

**Q.** Does B5 bind?
**A.** binds
